Assay results published in paper PMC7756681, “Functional Hybrid Molecules for the Visualization of Cancer: PESIN‐Homodimers Combined with Multimodal Molecular Imaging Probes for Positron Emission Tomography and Optical Imaging: Suited for Tracking of GRPR‐Positive Malignant Tissue” (Chemistry (Weinheim an Der Bergstrasse, Germany), 2020).

Tests used:
[1] = LogD determination of 68Ga-labeled MIUs and bioconjugates (water/1-octanol partition, γ-counter); details: pH 7.4
Method: Following the synthesis of the MIUs 6 a–13 a and the corresponding bioconjugates 6–13, the radiolabeling efficiency of the compounds with ^68Ga^3+ was investigated. […] In the following, we investigated the lipophilicity of the MIUs [^68Ga]6 a–[^68Ga]13 a and their bioconjugates [^68Ga]6–[^68Ga]13 (Table 1 and Figure 2 C,D).
A solution of the respective multimodal imaging unit (MIU) 6a – 13a (5 nmol) or multimodal imaging agent 6 - 14 (5 nmol) in H2O (Tracepur quality, 1mM) was added to 90 - 120 MBq of [68Ga]GaCl in a solution obtained by fractioned elution of an IGG 68Ge/68Ga generator system […]
with HCl (0.1 M, 1.6 mL) and subsequent titration to pH 3.5 – 4.2 by addition of sodium acetate solution (1.25 M, 50 – 75 µL). All labeling experiments were performed by addition of 2 mg ascorbic acid to suppress radiolysis-induced product fragmentation. In the labeling experiments of the MIUs 6a – 13a, 1 - 4 mg TCEP x HCl were added and the pH was adjusted to 3.5 – 4.2 by addition of sodium acetate solution (1.25 M). After reaction for 10 min at 45°C, the reaction mixtures were analyzed by analytical radio-HPLC.
For 68Ga-6/6a – 68Ga-13/13a, the water/1-octanol partition coefficient (log ) was determined by […]
adding 5 µL of the respectively 68Ga-labeled compound (0.8 – 1.2 MBq) to a mixture of phosphate buffer (0.05 M, pH 7.4, 795 µL) and 1-octanol (800 µL). The mixtures were intensively shaken for 5 minutes on a vibrating plate. After subsequent centrifugation at 13 000 rpm for 5 min, 125 µL were taken from each phase and measured in a γ-counter. The logD values were calculated from three or four independent experiments, each performed in triplicate.
For 14, the water/1-octanol partition coefficient (logD) was determined by semipreparative HPLC.
For this purpose, 10 µL solution (c = 5 x 10-4 mol/L) of the substance were added to a mixture of 1 mL 1-octanol and 990 µL phosphate buffered solution (0.05 M, pH 7.4) and the mixture was vigorously shaken for 5 minutes. After centrifugation, the phases were separated and both phases were analyzed by semipreparative HPLC. The logD was determined by three separate measurements, each experiment performed in triplicate.
(§1) Competitive receptor binding assay
(§2) Stably GRPR-transfected Human Embryonic Kidney 293 cells (HEK-GRPR) were cultured at 37°C in Dulbecco’s Modified Eagle’s Medium (DMEM, high glucose, GlutaMax-I, 500 mL) […]
(§3) a humidified atmosphere containing 5 % CO2. The medium was exchanged every two or three days and cells were split at >75 % confluence. In vitro binding affinities were determined via competitive displacement experiments which were performed at least trice, each experiment performed in triplicate. A Millipore Multiscreen punch kit and Millipore 96 well filter plates (pore size 1.2 µm) were used. The plates were incubated with PBS/BSA (1%) solution (each well 200 µL) for one hour before use. HEK-GRPR cells were harvested and suspended carefully in Opti- […]

[2] = target: T1, gastrin-releasing peptide receptor (GRPR) (Homo sapiens, UniProt P30550); assay: Competitive displacement assay on stably GRPR-transfected HEK cells using [125I]-Tyr4-bombesin; assay type: binding; details: [125I]-Tyr4-bombesin as competitor, 1 h, ambient temperature, read-out: IC50 (GRPR affinity)
T1 construct: host or cells: Human Embryonic Kidney 293 cells (HEK-GRPR)
T1 sequence (P30550 whole entry, species assumed): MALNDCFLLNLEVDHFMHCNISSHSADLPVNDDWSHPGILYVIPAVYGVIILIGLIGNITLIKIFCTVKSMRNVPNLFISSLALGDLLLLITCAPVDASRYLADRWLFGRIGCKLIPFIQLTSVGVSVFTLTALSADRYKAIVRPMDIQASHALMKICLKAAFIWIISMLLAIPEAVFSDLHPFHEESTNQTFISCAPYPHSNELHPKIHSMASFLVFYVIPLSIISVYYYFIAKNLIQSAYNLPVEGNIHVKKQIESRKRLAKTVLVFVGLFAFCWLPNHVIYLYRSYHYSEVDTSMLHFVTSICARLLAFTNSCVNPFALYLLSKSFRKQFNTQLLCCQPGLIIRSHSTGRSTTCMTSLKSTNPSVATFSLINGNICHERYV
Method: as §1, §2
as §3, with “Opti-MEM I (GlutaMAX I) medium. 50 µL of a cell suspension containing […] were seeded in each well. To this, a total volume of 50 µL was added to each well, containing 25 µL (0.012” for “Opti-”
The competitor was added in 11 increasing concentrations ranging from 0.25 – 500 nM for 6 – […]
binding of the radioligand. After one hour of incubation at ambient temperature, the solution was filtrated and the filters were washed with cold PBS (3 times). The filters were collected and […]

[3] = Photophysical properties (absorption and emission spectra in PBS); assay type: physicochemical; details: for Log ϵ / λ max / Stokes shift: 1×10^−5 mol L^−1
Excerpt: After studying the chemical and biological properties of the MIUs and their corresponding multimodal imaging agents, the photophysical properties of the substances were finally under investigation. Here, we found no significant decrease or shift of the optical and fluorescent characteristics of the bioconjugates compared to the MIUs (Table 2).
Fig. S27 Normalized absorption and emission spectra of 7 (left) and 7a (right), recorded in PBS
at a concentration of c = 1.0 x 10-5 mol/L, emission wavelength stated in the graph (bottom, left
Fig. S28 Normalized absorption and emission spectra of 8 (left) and 8a (right), recorded in PBS
Fig. S29 Normalized absorption and emission spectra of 9 (left) and 9a (right), recorded in PBS […]
Fig. S30 Normalized absorption and emission spectra of 10 (left) and 10a (right), recorded in
PBS at a concentration of c = 1.0 x 10-5 mol/L, emission wavelength stated in the graph (bottom,
Fig. S31 Normalized absorption and emission spectra of 11 (left) and 11a (right), recorded in
Fig. S32 Normalized absorption and emission spectra of 12 (left) and 12a (right), recorded in […]

[4] = 1×10^−5 mol L^−1, excitation wavelength λex=400 nm

Row | IC50 [2] [µM] | SMILES | logD [1] | λem [3, 4] [nm] | Log ϵ [3] [M ^−1 cm^−1] | λ max [3] [nm] | Stokes shift [3] [nm] | λem ([3]; 1×10^−5 mol L^−1, excitation wavelength λex=500 nm) [nm]
1 | 0.0262 ± 0.00089 | CSCC[C@H](NC(=O)[C@H](CC(C)C)NC(=O)[C@H](Cc1c[nH]cn1)NC(=O)CNC(=O)[C@@H](NC(=O)[C@H](C)NC(=O)[C@H](Cc1c[nH]c2ccccc12)NC(=O)[C@H](CCC(N)=O)NC(=O)CCOCCOCCOCCOCCNC(=O)CON=Cc1ccc(C(=O)NCCCN(CCCNC(=O)c2ccc(C=NOCC(=O)NCCOCCOCCOCCOCCC(=O)N[C@@H](CCC(N)=O)C(=O)N[C@@H](Cc3c[nH]c4ccccc34)C(=O)N[C@@H](C)C(=O)N[C@H](C(=O)NCC(=O)N[C@@H](Cc3c[nH]cn3)C(=O)N[C@@H](CC(C)C)C(=O)N[C@@H](CCSC)C(N)=O)C(C)C)cc2)CC(=O)N[C@H](CSC2CC(=O)N(CCN3C(=O)CC(SC[C@H](NC(=O)[C@H](CCCCNS(=O)(=O)c4cccc5c(N(C)C)cccc45)NC(=O)CC[C@H](C(=O)O)N4CCN(CC(=O)O)CCN(CC(=O)O)CC4)C(N)=O)C3=O)C2=O)C(=O)NCCOCCOCC(N)=O)cc1)C(C)C)C(N)=O (stereo partly shown) [Compound 9] | -1.59 ± 0.06 | 540 | – | – | – | –
2 | – | CSCC[C@H](NC(=O)[C@H](CC(C)C)NC(=O)[C@H](Cc1c[nH]cn1)NC(=O)CNC(=O)[C@@H](NC(=O)[C@H](C)NC(=O)[C@H](Cc1c[nH]c2ccccc12)NC(=O)[C@H](CCC(N)=O)NC(=O)CCOCCOCCOCCOCCNC(=O)CON=Cc1ccc(C(=O)NCCCN(CCCNC(=O)c2ccc(C=NOCC(=O)NCCOCCOCCOCCOCCC(=O)N[C@@H](CCC(N)=O)C(=O)N[C@@H](Cc3c[nH]c4ccccc34)C(=O)N[C@@H](C)C(=O)N[C@H](C(=O)NCC(=O)N[C@@H](Cc3c[nH]cn3)C(=O)N[C@@H](CC(C)C)C(=O)N[C@@H](CCSC)C(N)=O)C(C)C)cc2)CC(=O)N[C@H](CSC2CC(=O)N(CCN3C(=O)CC(SC[C@H](NC(=O)[C@H](CCCCNc4ccc([N+](=O)[O-])c5nonc45)NC(=O)CC[C@H](C(=O)O)N4CCN(CC(=O)O)CCN(CC(=O)O)CC4)C(N)=O)C3=O)C2=O)C(=O)NCCOCCOCC(N)=O)cc1)C(C)C)C(N)=O (stereo partly shown) [Compound 10] | -1.42 ± 0.24 | 545 | 4.10 | 490 | – | –
3 | 0.018 ± 0.00086 | CSCC[C@H](NC(=O)[C@H](CC(C)C)NC(=O)[C@H](Cc1c[nH]cn1)NC(=O)CNC(=O)[C@@H](NC(=O)[C@H](C)NC(=O)[C@H](Cc1c[nH]c2ccccc12)NC(=O)[C@H](CCC(N)=O)NC(=O)CCOCCOCCOCCOCCNC(=O)CON=Cc1ccc(C(=O)NCCCN(CCCNC(=O)c2ccc(C=NOCC(=O)NCCOCCOCCOCCOCCC(=O)N[C@@H](CCC(N)=O)C(=O)N[C@@H](Cc3c[nH]c4ccccc34)C(=O)N[C@@H](C)C(=O)N[C@H](C(=O)NCC(=O)N[C@@H](Cc3c[nH]cn3)C(=O)N[C@@H](CC(C)C)C(=O)N[C@@H](CCSC)C(N)=O)C(C)C)cc2)CC(=O)N[C@H](CSC2CC(=O)N(CCN3C(=O)CC(SC[C@H](NC(=O)[C@H](CCCCNC(=O)c4ccccc4C4=c5cc6c7c(c5Oc5c4cc4c8c5CCCN8CCC4)CCC[N+]=7CCC6)NC(=O)CC[C@H](C(=O)O)N4CCN(CC(=O)O)CCN(CC(=O)O)CC4)C(N)=O)C3=O)C2=O)C(=O)NCCOCCOCC(N)=O)cc1)C(C)C)C(N)=O (stereo partly shown) [Compound 13] | -0.81 ± 0.05 | – | 4.57 | 590 | 20 | 610
4 | 0.0165 ± 0.00025 | CSCC[C@H](NC(=O)[C@H](CC(C)C)NC(=O)[C@H](Cc1c[nH]cn1)NC(=O)CNC(=O)[C@@H](NC(=O)[C@H](C)NC(=O)[C@H](Cc1c[nH]c2ccccc12)NC(=O)[C@H](CCC(N)=O)NC(=O)CCOCCOCCOCCOCCNC(=O)CON=Cc1ccc(C(=O)NCCCN(CCCNC(=O)c2ccc(C=NOCC(=O)NCCOCCOCCOCCOCCC(=O)N[C@@H](CCC(N)=O)C(=O)N[C@@H](Cc3c[nH]c4ccccc34)C(=O)N[C@@H](C)C(=O)N[C@H](C(=O)NCC(=O)N[C@@H](Cc3c[nH]cn3)C(=O)N[C@@H](CC(C)C)C(=O)N[C@@H](CCSC)C(N)=O)C(C)C)cc2)CC(=O)N[C@H](CSC2CC(=O)N(CCN3C(=O)CC(SC[C@H](NC(=O)[C@H](CCCC[n+]4c(C)cc(/C=C/c5ccc(N(C)C)cc5)cc4C)NC(=O)CC[C@H](C(=O)O)N4CCN(CC(=O)O)CCN(CC(=O)O)CC4)C(N)=O)C3=O)C2=O)C(=O)NCCOCCOCC(N)=O)cc1)C(C)C)C(N)=O (stereo partly shown) [Compound 7] | -2 ± 0.01 | 600 | 4.23 | 460 | 140 | –
5 | 0.0155 ± 0.00076 | CSCC[C@H](NC(=O)[C@H](CC(C)C)NC(=O)[C@H](Cc1c[nH]cn1)NC(=O)CNC(=O)[C@@H](NC(=O)[C@H](C)NC(=O)[C@H](Cc1c[nH]c2ccccc12)NC(=O)[C@H](CCC(N)=O)NC(=O)CCOCCOCCOCCOCCNC(=O)CON=Cc1ccc(C(=O)NCCCN(CCCNC(=O)c2ccc(C=NOCC(=O)NCCOCCOCCOCCOCCC(=O)N[C@@H](CCC(N)=O)C(=O)N[C@@H](Cc3c[nH]c4ccccc34)C(=O)N[C@@H](C)C(=O)N[C@H](C(=O)NCC(=O)N[C@@H](Cc3c[nH]cn3)C(=O)N[C@@H](CC(C)C)C(=O)N[C@@H](CCSC)C(N)=O)C(C)C)cc2)CC(=O)N[C@H](CSC2CC(=O)N(CCN3C(=O)CC(SC[C@H](NC(=O)[C@H](CCCC[n+]4c(C)cc(/C=C/C=C/c5ccc(N(C)C)cc5)cc4C)NC(=O)CC[C@H](C(=O)O)N4CCN(CC(=O)O)CCN(CC(=O)O)CC4)C(N)=O)C3=O)C2=O)C(=O)NCCOCCOCC(N)=O)cc1)C(C)C)C(N)=O (stereo partly shown) [Compound 8] | -1.73 ± 0.2 | 700 | 4.16 | 470 | 230 | –
6 | 0.0209 ± 0.00167 | CSCC[C@H](NC(=O)[C@H](CC(C)C)NC(=O)[C@H](Cc1c[nH]cn1)NC(=O)CNC(=O)[C@@H](NC(=O)[C@H](C)NC(=O)[C@H](Cc1c[nH]c2ccccc12)NC(=O)[C@H](CCC(N)=O)NC(=O)CCOCCOCCOCCOCCNC(=O)CON=Cc1ccc(C(=O)NCCCN(CCCNC(=O)c2ccc(C=NOCC(=O)NCCOCCOCCOCCOCCC(=O)N[C@@H](CCC(N)=O)C(=O)N[C@@H](Cc3c[nH]c4ccccc34)C(=O)N[C@@H](C)C(=O)N[C@H](C(=O)NCC(=O)N[C@@H](Cc3c[nH]cn3)C(=O)N[C@@H](CC(C)C)C(=O)N[C@@H](CCSC)C(N)=O)C(C)C)cc2)CC(=O)N[C@H](CSC2CC(=O)N(CCN3C(=O)CC(SC[C@H](NC(=O)[C@H](CCCCNC(=O)c4cc5cc6c7c(c5oc4=O)CCCN7CCC6)NC(=O)CC[C@H](C(=O)O)N4CCN(CC(=O)O)CCN(CC(=O)O)CC4)C(N)=O)C3=O)C2=O)C(=O)NCCOCCOCC(N)=O)cc1)C(C)C)C(N)=O (stereo partly shown) [Compound 12] | -1.72 ± 0.13 | 495 | 4.30 | 455 | 40 | –
